Test results from patent US20260199463A1 (CENTURY THERAPEUTICS, published 2026).

T1: Nectin4-HIS protein (AcroBiosystems #NE4-H52H3) (UniProt Q96NY8 32-349)
T1 construct: Bought protein; also called Nectin4 protein; recombinant Nectin4-HIS protein; not shown: His tag
T1 sequence (looked up): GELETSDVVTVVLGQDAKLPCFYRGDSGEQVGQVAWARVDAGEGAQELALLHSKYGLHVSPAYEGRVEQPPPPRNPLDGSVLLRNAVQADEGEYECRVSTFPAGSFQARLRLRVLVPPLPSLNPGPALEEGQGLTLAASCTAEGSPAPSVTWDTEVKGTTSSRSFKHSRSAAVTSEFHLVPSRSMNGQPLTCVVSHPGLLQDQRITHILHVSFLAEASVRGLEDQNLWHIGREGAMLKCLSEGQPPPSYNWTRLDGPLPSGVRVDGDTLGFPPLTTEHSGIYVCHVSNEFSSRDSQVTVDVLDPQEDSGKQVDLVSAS


Assays:
[1] = target: T1, Nectin4-HIS protein (AcroBiosystems …); test: ELISA, periplasmic extract on plate-bound Nectin4 (1 ug/mL), anti-Flag:HRP detection
Description: ELISA: 8 Maxisorp plates were coated with 100 uL/well Nectin4 at 1 ug/mL overnight at 4° C. Plates were emptied, and 200 uL/well SuperBlock was added to all plates, and incubated for 1 hour at RT. The plate was washed 1× with TBST on the Aquamax plate washer. 60 μL of anti-Flag:HRP (1:10,000 in PBS-T with 1:10 Superblock) was added per well to a V-bottom plate for each library screening plate. 60 uL/well PPE was added per well to the V-bottom plates and incubated for 1 hour at RT. 50 μL of the PPE/Anti-Flag mix was transferred to each ELISA plate and incubated for 1 hour at RT. The plate was washed 3× with TBST on the Aquamax plate washer. 50 uL/well TMB Ultra solution was added and incubated at RT for 30 minutes, until the wells appeared blue. 50 uL/well stop solution was added and absorbance at 450 nm was read on the Spectramax i3× plate reader. 54 unique clones were identified from the two libraries. A subset of 20 clones was selected from V2S and V2 M for cloning into P201 (SEQ ID Nos. 111-130).

[2] = target: T1, Nectin4-HIS protein (AcroBiosystems …); test: flow cytometry, Nectin4-HIS at 2 ug/ml on CAR-transduced Nurkat cells

| binding result [1] | binding result [2] | Binder |
| --- | --- | --- |
| binds | – | NEC_S_5 (VHH, Periplasmic extract (PPE) of a panning clone) VHH: EVQLLESGGGLVQPGGSLRLSCAASGLTFRYNAMGWYRQAPGKEREFVSAISGSGGGTYYADSVKGRFTISRDNSKNTLYLQMNSLKPEDTAVYYCAAEGLYDYWGQGTQVTVSS |
| binds | – | NEC_M_8 (VHH, Periplasmic extract (PPE) of a panning clone) VHH: EVQLLESGGGLVQPGGSLRLSCAASGFTFSSYAMGWYRQAPGKEREFVSSISGSGGLTRYADSVKGRFTISRDNSKNTLYLQMNSLKPEDTAVYYCAVTTGYQGGVYDYWGQGTQVTVSS |
| binds | – | NEC_S_11 (VHH, Periplasmic extract (PPE) of a panning clone) VHH: EVQLLESGGGLVQPGGSLRLSCAASGLTSSGYAMGWYRQAPGKERELVSSISSSGGLTHYADSVKGRFTISRDNSKNTLYLQMNSLKPEDTAVYYCDADIAYTGADYWGQGTQVTVSS |
| – | binds | MARS SP_NEC_M_46_P3110_CD8 Hinge_CD28 tm_41BB_CD3Z (other, Chimeric antigen receptor on transduced Nurkat cells or primary T cells) EVQLLESGGGLVQPGGSLRLSCAASGYTFSDYAMGWYRQAPGKERELVSSISGSGGSTRYADSVKGRFTISRDNSKNTLYLQMNSLKPEDTAVYYCAAVIRQPSTGFYEYWGQGTQVTVSSTTTPAPRPPTPAPTIASQPLSLRPEACRPAAGGAVHTRGLDFACDFWVLVVVGGVLACYSLLVTVAFIIFWVKRGRKKLLYIFKQPFMRPVQTTQEEDGCSCRFPEEEEGGCELRVKFSRSADAPAYQQGQNQLYNELNLGRREEYDVLDKRRGRDPEMGGKPRRKNPQEGLYNELQKDKMAEAYSEIGMKGERRRGKGHDGLYQGLSTATKDTYDALHMQALPPR |
| – | binds | MARS SP_NEC_M_44_P3109_CD8 Hinge_CD28 tm_41BB_CD3Z (other, Chimeric antigen receptor on transduced Nurkat cells or primary T cells) EVQLLESGGGLVQPGGSLRLSCAASGRTLSSYAMGWYRQAPGKERELVSSISGSGGSTRYADSVKGRFTISRDNSKNTLYLQMNSLKPEDTAVYYCAVYILELAPGAEYWGQGTQVTVSSTTTPAPRPPTPAPTIASQPLSLRPEACRPAAGGAVHTRGLDFACDFWVLVVVGGVLACYSLLVTVAFIIFWVKRGRKKLLYIFKQPFMRPVQTTQEEDGCSCRFPEEEEGGCELRVKFSRSADAPAYQQGQNQLYNELNLGRREEYDVLDKRRGRDPEMGGKPRRKNPQEGLYNELQKDKMAEAYSEIGMKGERRRGKGHDGLYQGLSTATKDTYDALHMQALPPR |
| binds | – | NEC_S_64 (VHH, Periplasmic extract (PPE) of a panning clone) VHH: EVQLLESGGGLVQPGGSLRLSCAASGFAYSSYYMGWYRQAPGKEREFVSAISSSGGGTYYADSVKGRFTISRDNSKNTLYLQMNSLKPEDTAVYYCAVELTYNYWGQGTQVTVSS |
| binds | – | NEC_M_29 (VHH, Periplasmic extract (PPE) of a panning clone) VHH: EVQLLESGGGLVQPGGSLRLSCAASGFTYTSYVMGWYRQAPGKERELVSAIYGSAGSGYYADSVKGRFTISRDNSKNTLYLQMNSLKPEDTAVYYCARVTTTTHLWSAEYWGQGTQVTVSS |
| binds | – | NEC_M_17 (VHH, Periplasmic extract (PPE) of a panning clone) VHH: EVQLLESGGGLVQPGGSLRLSCAASGFTYSGYAMGWYRQAPGKERELVSSISGSGTLTSYADSVKGRFTISRDNSKNTLYLQMNSLKPEDTAVYYCDVDIPVGDATTVGDYWGQGTQVTVSS |
| binds | – | NEC_M_82 (VHH, Periplasmic extract (PPE) of a panning clone) VHH: EVQLLESGGGLVQPGGSLRLSCAASGFTYSDYAMGWYRQAPGKERELVSAISSYGGVTNYADSVKGRFTISRDNSKNTLYLQMNSLKPEDTAVYYCAAYGALSIRGYDYWGQGTQVTVSS |
| binds | – | NEC_M_84 (VHH, Periplasmic extract (PPE) of a panning clone) VHH: EVQLLESGGGLVQPGGSLRLSCAASGFAFSIDAMGWYRQAPGKEREGVSSISGSGGLTRYADSVKGRFTISRDNSKNTLYLQMNSLKPEDTAVYYCDTAVLTGYSEAFDYWGQGTQVTVSS |

The remaining lines, values behind:

| Binder | binding result [1] | binding result [2] |
| --- | --- | --- |
| NEC_M_21 (VHH, Periplasmic extract (PPE) of a panning clone) VHH: EVQLLESGGGLVQPGGSLRLSCAASGLTFSSNAMGWYRQAPGKERELVSSISGSGGSTNYADSVKGRFTISRDNSKNTLYLQMNSLKPEDTAVYYCAAEIATYYDFADYWGQGTQVTVSS | binds | – |
| NEC_S_2 (VHH, Periplasmic extract (PPE) of a panning clone) VHH: EVQLLESGGGLVQPGGSLRLSCAASGSTFSSNAMGWYRQAPGKERELVSSISGSGGSTRYADSVKGRFTISRDNSKNTLYLQMNSLKPEDTAVYYCASYVLYLREYWGQGTQVTVSS | binds | – |
| NEC_S_31 (VHH, Periplasmic extract (PPE) of a panning clone) VHH: EVQLLESGGGLVQPGGSLRLSCAASGFTYSSYAMGWYRQAPGKERELVSSISGSGGSTRYADSVKGRFTISRDNSKNTLYLQMNSLKPEDTAVYYCAVAIGVGDYWGQGTQVTVSS | binds | – |
| NEC_S_56 (VHH, Periplasmic extract (PPE) of a panning clone) VHH: EVQLLESGGGLVQPGGSLRLSCAASGLTLSSYAMGWFRQAPGKERELVSSISGSGGSTRYADSVKGRFTISRDNSKNTLYLQMNSLKPEDTAVYYCAVDIRLTDYWGQGTQVTVSS | binds | – |
| NEC_M_44 (VHH, Periplasmic extract (PPE) of a panning clone) VHH: EVQLLESGGGLVQPGGSLRLSCAASGRTLSSYAMGWYRQAPGKERELVSSISGSGGSTRYADSVKGRFTISRDNSKNTLYLQMNSLKPEDTAVYYCAVYILELAPGAEYWGQGTQVTVSS | binds | – |
| MARS SP_NEC_S_31_P3113_CD8 Hinge_CD28 tm_41BB_CD3Z (other, Chimeric antigen receptor on transduced Nurkat cells or primary T cells) EVQLLESGGGLVQPGGSLRLSCAASGFTYSSYAMGWYRQAPGKERELVSSISGSGGSTRYADSVKGRFTISRDNSKNTLYLQMNSLKPEDTAVYYCAVAIGVGDYWGQGTQVTVSSTTTPAPRPPTPAPTIASQPLSLRPEACRPAAGGAVHTRGLDFACDFWVLVVVGGVLACYSLLVTVAFIIFWVKRGRKKLLYIFKQPFMRPVQTTQEEDGCSCRFPEEEEGGCELRVKFSRSADAPAYQQGQNQLYNELNLGRREEYDVLDKRRGRDPEMGGKPRRKNPQEGLYNELQKDKMAEAYSEIGMKGERRRGKGHDGLYQGLSTATKDTYDALHMQALPPR | – | binds |
| NEC_S_55 (VHH, Periplasmic extract (PPE) of a panning clone) VHH: EVQLLESGGGLVQPGGSLRLSCAASGFTLSSYAMGWYRQAPGKERELVSSISGSGGSTRYADSVKGRFTISRDNSKNTLYLQMNSLKPEDTAVYYCAAYIGGDYLGQGTQVTVSS | binds | – |
| MARS SP_NEC_M_8_P3107_CD8 Hinge_CD28 tm_41BB_CD3Z (other, Chimeric antigen receptor on transduced Nurkat cells or primary T cells) EVQLLESGGGLVQPGGSLRLSCAASGFTFSSYAMGWYRQAPGKEREFVSSISGSGGLTRYADSVKGRFTISRDNSKNTLYLQMNSLKPEDTAVYYCAVTTGYQGGVYDYWGQGTQVTVSSTTTPAPRPPTPAPTIASQPLSLRPEACRPAAGGAVHTRGLDFACDFWVLVVVGGVLACYSLLVTVAFIIFWVKRGRKKLLYIFKQPFMRPVQTTQEEDGCSCRFPEEEEGGCELRVKFSRSADAPAYQQGQNQLYNELNLGRREEYDVLDKRRGRDPEMGGKPRRKNPQEGLYNELQKDKMAEAYSEIGMKGERRRGKGHDGLYQGLSTATKDTYDALHMQALPPR | – | binds |
| NEC_M_46 (VHH, Periplasmic extract (PPE) of a panning clone) VHH: EVQLLESGGGLVQPGGSLRLSCAASGYTFSDYAMGWYRQAPGKERELVSSISGSGGSTRYADSVKGRFTISRDNSKNTLYLQMNSLKPEDTAVYYCAAVIRQPSTGFYEYWGQGTQVTVSS | binds | – |
| NEC_M_66 (VHH, Periplasmic extract (PPE) of a panning clone) VHH: EVQLLESGGGLVQPGGSLRLSCAASGFAYSSYSIGWYRQAPGKERELVSAISGSGGSSRYADSVKGRFTISRDNSKNTLYLQMNSLKPEDTAVYYCAAIAYVYTSTARNYWGQGTQVTVSS | binds | – |
| NEC_M_5 (VHH, Periplasmic extract (PPE) of a panning clone) VHH: EVQLLESGGGLVQPGGSLRLSCAASGLSFSSYSMGWYRQAPGKEREFVSAISGSSGSTNYADSVKGRFTISRDNSKNTLYLQMNSLKPEDTAVYYCAAEHRVTTSGVFYDYWGQGTQVTVSS | binds | – |
| MARS SP_NEC_M_5_P3106_CD8 Hinge_CD28 tm_41BB_CD3Z (other, Chimeric antigen receptor on transduced Nurkat cells or primary T cells) EVQLLESGGGLVQPGGSLRLSCAASGLSFSSYSMGWYRQAPGKEREFVSAISGSSGSTNYADSVKGRFTISRDNSKNTLYLQMNSLKPEDTAVYYCAAEHRVTTSGVFYDYWGQGTQVTVSSTTTPAPRPPTPAPTIASQPLSLRPEACRPAAGGAVHTRGLDFACDFWVLVVVGGVLACYSLLVTVAFIIFWVKRGRKKLLYIFKQPFMRPVQTTQEEDGCSCRFPEEEEGGCELRVKFSRSADAPAYQQGQNQLYNELNLGRREEYDVLDKRRGRDPEMGGKPRRKNPQEGLYNELQKDKMAEAYSEIGMKGERRRGKGHDGLYQGLSTATKDTYDALHMQALPPR | – | binds |
| NEC_S_16 (VHH, Periplasmic extract (PPE) of a panning clone) VHH: EVQLLESGGGLVQPGGSLRLSCAASGFTFSDYYMGWYRQAPGKEREFVSAISSTGGSPYYADSVKGRFTISRDNSKNTLYLQMNSLKPEDTAVYYCAVEVPYDYWGQGTQVTVSS | binds | – |
